Reference: patent publication US20230035748A1
No end group written: not given here.

Tests used:
Assay in all cases: pull-down from MDA-MB-231 cell lysate with CT20p-biotin and streptavidin-agarose beads, excised gel band, mass spectrometry
[1] = target: T-complex protein 1 subunit eta (human) (UniProt Q99832)
[2] = target: T-complex protein 1 subunit gamma (human) (UniProt P49368)
Huntingtin (human) = Huntingtin (human) (UniProt P42858)
[3] = target: Signal transducer and activator of transcription 1-alpha/beta (human) (UniProt P42224)
[4] = target: Coatomer subunit gamma-1 (human) (UniProt Q9Y678)
[5] = target: T-complex protein 1 subunit zeta (human) (UniProt P40227)
Reticulocalbin-2 (human) = Reticulocalbin-2 (human) (UniProt Q14257)
[6] = target: T-complex protein 1 subunit delta (human) (UniProt P50991)
[7] = target: Coatomer subunit beta (human) (UniProt P35606)
[8] = target: T-complex protein 1 subunit alpha (human) (UniProt P17987)
[9] = target: Hsp90 co-chaperone Cdc37 (human) (UniProt Q16543)
[10] = target: T-complex protein 1 subunit epsilon (human) (UniProt P48643)
[11] = target: Cellular tumor antigen p53 (human) (UniProt P04637)
[12] = target: Signal transducer and activator of transcription 3 (human) (UniProt P40763)
Chain of UniProt P40763 (P40763 2-770 limits assumed): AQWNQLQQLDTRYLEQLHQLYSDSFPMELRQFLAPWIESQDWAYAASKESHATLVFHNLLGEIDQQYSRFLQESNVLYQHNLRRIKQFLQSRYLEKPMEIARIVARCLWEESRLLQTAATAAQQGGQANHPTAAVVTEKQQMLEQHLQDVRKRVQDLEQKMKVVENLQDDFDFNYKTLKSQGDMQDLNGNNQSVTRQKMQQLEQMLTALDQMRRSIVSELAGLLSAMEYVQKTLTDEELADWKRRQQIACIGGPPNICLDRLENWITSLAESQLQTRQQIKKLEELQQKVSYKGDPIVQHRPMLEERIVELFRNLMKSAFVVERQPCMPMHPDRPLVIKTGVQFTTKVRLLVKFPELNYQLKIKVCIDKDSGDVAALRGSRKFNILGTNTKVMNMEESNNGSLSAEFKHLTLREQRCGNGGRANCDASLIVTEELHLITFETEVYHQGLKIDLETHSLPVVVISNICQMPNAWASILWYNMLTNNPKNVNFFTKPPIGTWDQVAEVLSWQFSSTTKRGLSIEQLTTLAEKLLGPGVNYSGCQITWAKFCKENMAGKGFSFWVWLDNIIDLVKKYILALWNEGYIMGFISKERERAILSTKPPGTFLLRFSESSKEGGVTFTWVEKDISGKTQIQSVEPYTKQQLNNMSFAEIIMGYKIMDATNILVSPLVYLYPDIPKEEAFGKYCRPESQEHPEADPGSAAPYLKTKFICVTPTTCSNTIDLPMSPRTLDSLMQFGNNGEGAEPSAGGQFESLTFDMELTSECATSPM

Chain of UniProt P17987 (P17987 whole entry, one chain of several): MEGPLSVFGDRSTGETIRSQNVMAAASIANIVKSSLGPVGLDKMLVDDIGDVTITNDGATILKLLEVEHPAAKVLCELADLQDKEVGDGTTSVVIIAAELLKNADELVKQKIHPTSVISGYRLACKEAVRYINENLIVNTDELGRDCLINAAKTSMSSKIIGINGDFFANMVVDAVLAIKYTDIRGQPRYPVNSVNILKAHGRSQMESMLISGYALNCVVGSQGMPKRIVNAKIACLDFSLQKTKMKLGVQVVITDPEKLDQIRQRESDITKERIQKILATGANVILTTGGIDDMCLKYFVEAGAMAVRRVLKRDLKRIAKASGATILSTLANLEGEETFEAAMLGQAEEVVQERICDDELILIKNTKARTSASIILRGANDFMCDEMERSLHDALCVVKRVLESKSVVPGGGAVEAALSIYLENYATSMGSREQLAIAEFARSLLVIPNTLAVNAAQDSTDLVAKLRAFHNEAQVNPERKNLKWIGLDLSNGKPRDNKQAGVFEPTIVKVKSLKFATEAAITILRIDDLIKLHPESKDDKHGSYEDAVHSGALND
Chain of UniProt Q99832 (Q99832 whole entry, one chain of several): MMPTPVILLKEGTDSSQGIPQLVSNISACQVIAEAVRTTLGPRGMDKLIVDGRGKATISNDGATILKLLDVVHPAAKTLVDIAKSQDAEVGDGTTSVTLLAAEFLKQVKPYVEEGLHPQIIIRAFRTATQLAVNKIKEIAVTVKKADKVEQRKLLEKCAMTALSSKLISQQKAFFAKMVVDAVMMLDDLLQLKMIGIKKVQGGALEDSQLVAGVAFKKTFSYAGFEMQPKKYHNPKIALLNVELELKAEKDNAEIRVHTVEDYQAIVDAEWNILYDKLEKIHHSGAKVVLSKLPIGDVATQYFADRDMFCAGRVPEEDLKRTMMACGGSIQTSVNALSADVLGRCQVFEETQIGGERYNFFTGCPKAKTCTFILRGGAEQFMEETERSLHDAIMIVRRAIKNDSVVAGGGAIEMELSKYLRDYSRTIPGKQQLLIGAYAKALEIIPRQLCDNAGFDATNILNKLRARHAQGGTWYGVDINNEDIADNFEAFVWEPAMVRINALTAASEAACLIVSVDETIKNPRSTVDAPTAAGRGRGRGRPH
Chain of UniProt Q14257 (Q14257 23-317 limits assumed): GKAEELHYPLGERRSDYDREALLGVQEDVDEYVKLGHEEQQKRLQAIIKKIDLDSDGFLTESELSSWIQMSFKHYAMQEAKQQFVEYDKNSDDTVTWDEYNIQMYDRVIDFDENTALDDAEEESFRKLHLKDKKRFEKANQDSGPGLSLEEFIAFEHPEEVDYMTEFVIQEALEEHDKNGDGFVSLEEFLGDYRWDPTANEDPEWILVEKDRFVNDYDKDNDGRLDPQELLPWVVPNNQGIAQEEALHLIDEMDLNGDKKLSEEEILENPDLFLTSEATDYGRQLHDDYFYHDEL
Chain of UniProt P50991 (P50991 2-539, stated change not applied, one chain of several): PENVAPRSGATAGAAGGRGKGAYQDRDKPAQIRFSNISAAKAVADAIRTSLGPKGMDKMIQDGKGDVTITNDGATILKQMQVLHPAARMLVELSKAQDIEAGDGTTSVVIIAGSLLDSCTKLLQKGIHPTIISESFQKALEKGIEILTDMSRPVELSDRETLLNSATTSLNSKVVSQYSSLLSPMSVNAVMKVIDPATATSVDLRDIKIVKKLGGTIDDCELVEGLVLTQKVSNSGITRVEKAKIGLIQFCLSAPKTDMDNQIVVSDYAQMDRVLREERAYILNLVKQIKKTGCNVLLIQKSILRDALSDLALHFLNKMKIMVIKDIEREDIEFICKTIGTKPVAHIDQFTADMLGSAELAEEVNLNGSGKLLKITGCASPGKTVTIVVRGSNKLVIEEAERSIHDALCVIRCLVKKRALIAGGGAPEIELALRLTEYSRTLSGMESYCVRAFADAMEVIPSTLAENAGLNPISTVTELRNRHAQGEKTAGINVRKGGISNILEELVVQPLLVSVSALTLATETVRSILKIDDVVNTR
Chain of UniProt P04637 (P04637 whole entry): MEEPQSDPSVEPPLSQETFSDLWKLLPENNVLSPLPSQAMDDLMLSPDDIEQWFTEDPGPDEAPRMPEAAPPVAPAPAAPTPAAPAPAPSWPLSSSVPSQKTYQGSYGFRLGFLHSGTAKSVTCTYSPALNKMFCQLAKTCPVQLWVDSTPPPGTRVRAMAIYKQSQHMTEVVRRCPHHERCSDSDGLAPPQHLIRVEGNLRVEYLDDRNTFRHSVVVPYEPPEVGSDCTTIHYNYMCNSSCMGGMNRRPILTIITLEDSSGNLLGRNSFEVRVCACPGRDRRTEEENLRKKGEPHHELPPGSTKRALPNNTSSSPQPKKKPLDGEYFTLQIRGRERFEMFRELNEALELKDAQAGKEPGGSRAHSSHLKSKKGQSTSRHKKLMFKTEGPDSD
Chain of UniProt P42224 (P42224 2-750 limits assumed): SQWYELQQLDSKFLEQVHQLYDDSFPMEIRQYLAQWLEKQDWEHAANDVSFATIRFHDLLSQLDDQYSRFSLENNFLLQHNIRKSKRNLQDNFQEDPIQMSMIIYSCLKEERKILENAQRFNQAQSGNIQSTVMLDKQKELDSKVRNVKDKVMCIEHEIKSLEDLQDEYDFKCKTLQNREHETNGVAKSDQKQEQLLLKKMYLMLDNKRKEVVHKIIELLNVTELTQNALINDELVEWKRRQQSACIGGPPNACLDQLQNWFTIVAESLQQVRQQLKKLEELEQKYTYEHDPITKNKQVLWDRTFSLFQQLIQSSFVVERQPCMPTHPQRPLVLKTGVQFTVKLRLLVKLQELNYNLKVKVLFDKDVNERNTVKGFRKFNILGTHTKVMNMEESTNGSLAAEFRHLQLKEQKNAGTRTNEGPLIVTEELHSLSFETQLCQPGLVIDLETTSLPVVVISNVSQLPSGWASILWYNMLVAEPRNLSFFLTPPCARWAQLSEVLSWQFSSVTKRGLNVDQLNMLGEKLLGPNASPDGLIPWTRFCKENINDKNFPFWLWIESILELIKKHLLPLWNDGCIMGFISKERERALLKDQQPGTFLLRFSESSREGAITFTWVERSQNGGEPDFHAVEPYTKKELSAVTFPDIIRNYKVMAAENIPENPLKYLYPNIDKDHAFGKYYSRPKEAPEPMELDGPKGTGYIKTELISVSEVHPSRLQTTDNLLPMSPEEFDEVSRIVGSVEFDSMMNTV
Chain of UniProt P49368 (P49368 whole entry, one chain of several): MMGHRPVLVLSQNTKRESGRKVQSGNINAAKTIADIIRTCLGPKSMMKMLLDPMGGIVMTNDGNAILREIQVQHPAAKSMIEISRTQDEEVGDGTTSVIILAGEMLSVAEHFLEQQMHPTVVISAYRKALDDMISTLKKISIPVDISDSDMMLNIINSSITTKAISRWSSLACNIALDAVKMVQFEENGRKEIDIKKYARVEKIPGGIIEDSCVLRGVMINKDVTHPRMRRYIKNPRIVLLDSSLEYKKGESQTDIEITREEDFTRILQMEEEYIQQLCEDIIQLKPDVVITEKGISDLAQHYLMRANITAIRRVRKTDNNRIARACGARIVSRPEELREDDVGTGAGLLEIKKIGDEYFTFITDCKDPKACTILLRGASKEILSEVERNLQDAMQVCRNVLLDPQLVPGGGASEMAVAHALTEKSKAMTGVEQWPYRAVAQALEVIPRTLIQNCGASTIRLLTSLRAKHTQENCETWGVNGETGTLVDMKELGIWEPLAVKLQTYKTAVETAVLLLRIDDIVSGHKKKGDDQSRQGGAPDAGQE
Chain of UniProt Q16543 (Q16543 whole entry): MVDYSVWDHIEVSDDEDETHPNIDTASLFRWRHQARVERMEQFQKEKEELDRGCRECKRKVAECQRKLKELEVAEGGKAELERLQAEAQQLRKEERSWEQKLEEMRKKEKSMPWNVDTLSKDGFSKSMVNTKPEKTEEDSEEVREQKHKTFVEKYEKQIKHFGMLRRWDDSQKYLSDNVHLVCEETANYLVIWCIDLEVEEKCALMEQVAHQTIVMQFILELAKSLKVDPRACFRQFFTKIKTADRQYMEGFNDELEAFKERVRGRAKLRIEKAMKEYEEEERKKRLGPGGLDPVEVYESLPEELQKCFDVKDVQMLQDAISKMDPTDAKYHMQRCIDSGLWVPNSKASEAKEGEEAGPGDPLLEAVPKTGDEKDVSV

B1: biotin-tagged CT20p (peptide)
peptide: VTIFVAGVLTASLTIWKKMG
modifications: also: biotin tag, site not given here
- No. of unique peptides [1]: 3 peptides
- No. of unique peptides [2]: 3 peptides
- No. of unique peptides (Huntingtin (human)): 1 peptides
- No. of unique peptides [3]: 7 peptides
- No. of unique peptides [4]: 6 peptides
- No. of unique peptides [5]: 2 peptides
- No. of unique peptides (Reticulocalbin-2 (human)): 10 peptides
- No. of unique peptides [6]: 4 peptides
- No. of unique peptides [7]: 6 peptides
- No. of unique peptides [8]: 2 peptides
- No. of unique peptides [9]: 2 peptides
- No. of unique peptides [10]: 2 peptides
- No. of unique peptides [11]: 1 peptides
- No. of unique peptides [12]: 2 peptides
